The target of series [1] is T1, transcription factor GAL80 (Saccharomyces cerevisiae, UniProt P04387).
T1 sequence (P04387 1-435): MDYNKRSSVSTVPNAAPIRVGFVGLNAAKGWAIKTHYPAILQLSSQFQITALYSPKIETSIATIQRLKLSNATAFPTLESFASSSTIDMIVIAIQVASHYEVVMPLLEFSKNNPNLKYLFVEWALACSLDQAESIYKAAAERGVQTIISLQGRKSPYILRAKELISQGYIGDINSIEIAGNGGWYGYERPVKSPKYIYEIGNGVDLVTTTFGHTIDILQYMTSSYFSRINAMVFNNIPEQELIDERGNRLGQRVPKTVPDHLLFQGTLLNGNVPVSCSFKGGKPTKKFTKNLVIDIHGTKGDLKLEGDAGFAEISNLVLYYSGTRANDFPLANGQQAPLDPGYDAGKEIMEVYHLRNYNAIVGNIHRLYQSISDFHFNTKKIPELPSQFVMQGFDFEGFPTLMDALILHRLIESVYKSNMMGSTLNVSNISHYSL
As to conditions: template peptide of the array; cited from earlier work.

Series [2] concerns the target T2, transcription factor AP-1 (c-JUN) (Homo sapiens, UniProt P05412).
T2 construct: purchased Promega Corp (Madison, Wis.)
The series is described as follows: rhAP1 binding to DNA grafted polymer microstructures, in situ trypsin digest and MALDI-MS peptide mass fingerprinting. As to conditions: rhAP1 0.3 ug/ml 1:1 with buffer Z, 0.5 hrs at RT and 2 hrs at 4 C; identified by MALDI-MS, not in control. On the procedure:
This array was then washed with sterile water and a 1:1 mixture of rhAP1 protein 0.3 μg/ml and buffer Z (25 mM HEPES K+ pH 7.8, 12.5 mM MgCl2, 1 μM DTT, 20% glycerol, 0.1 Nonidet p40) and 2 μL was spotted onto all 5 microstructures. This was allowed to bind for 0.5 hrs at RT and 2 hrs at 4 C and then rinsed with sterile water at 4° C. The fluorescence was rechecked and the treatment spots were still fluorescent. 2 μL of a 1:100 dilution of 10 μg/mL trypsin in 25 mM ammonium carbonate and sterile water was spotted onto one feature and the array was left at 37° C. overnight.
A slightly subsaturated solution of α-cyano-4-hydroxycinnamic acid solution of 1:2 acetonitrile:water with 1% TFA was spotted, 2 μL per feature on to the array and left in hybridization chamber for 45 min. This was then dried and spotted with 1 μL of a saturated solution of α-cyano-4-hydroxycinnamic acid in 1:1 acetonitile:water with 0.1% TFA. […] Ions were only detected coming from the trypsin digest array element.
This array was then washed with sterile water and a 1:1 mixture of rhAP1 protein 0.3 ug/ml and buffer Z (25 mM HEPES K+ pH 7.8, 12.5 mM MgCl2, 1 uM DTT, 20% glycerol, 0.1 Nonidet p40) and 2 uL was spotted onto all 5 microstructures. […] The fluorescence was rechecked and the treatment spots were still fluorescent. […]

{AminoPEG9} = amino group attached through a PEG9 spacer, used for covalent surface attachment

T2 sequence (P05412 whole entry): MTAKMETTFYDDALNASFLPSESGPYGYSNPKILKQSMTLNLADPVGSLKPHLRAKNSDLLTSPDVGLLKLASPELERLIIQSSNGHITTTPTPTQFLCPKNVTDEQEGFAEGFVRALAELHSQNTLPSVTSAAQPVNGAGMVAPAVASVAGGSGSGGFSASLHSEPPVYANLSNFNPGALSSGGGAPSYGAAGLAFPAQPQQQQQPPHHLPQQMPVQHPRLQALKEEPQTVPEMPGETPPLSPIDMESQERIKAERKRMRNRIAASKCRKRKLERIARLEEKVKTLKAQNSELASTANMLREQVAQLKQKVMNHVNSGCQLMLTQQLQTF

Regarding “EGEWTEGKLSLR [template for 8,000 array variants substituted at positions 1, 3, 6]”, the “binding to transcription factor GAL80” value in series [1] was “known to bind”.

B1: Consensus DNA: covalently bound DNA containing three repeats of the consensus sequence for the transcription factor AP-1 (c-JUN), hybridized to Texas Red complement (nucleic acid)
DNA: CGCTTGATGAGTCAGCCGGAACGCTTGATGAGTCAGCCGGAACGCTTGATGAGTCAGCCGGAAGCTTCCGGTAAATTT
modifications: DNA, 5' {AminoPEG9}, backbone not given here; further chemistry not fully specified
B1: the “binding of transcription factor AP-1 to immobilized consensus DNA” value in series [2] is reported as “bind the transcription factor AP-1”.

Values taken from patent US20100056392A1, “MICROSTRUCTURE AND MICRODOMAIN MICROARRAYS, METHODS OF MAKING SAME AND USES THEREOF” (priority 2005, published 2010).
